Measured values reported in patent publication US5854049.

What was measured:
[1] = molecular target: purified human Glu-plasminogen (American Diagnostica, 98% Glu-type plasminogen) (human) (UniProt P00747)
[2] = molecular target: purified human Glu-plasminogen (American Diagnostica, 98% Glu-type plasminogen) (human) (UniProt P00747); remark: listed apart in the source
[3] = molecular target: native, full-length mature SK protein derived from Streptococcus equisimilus (nSK) (Streptococcus equisimilus)
[4] = molecular target: rSK (fusion protein with maltose binding protein linked to the amino terminus of nSK) (Streptococcus equisimilis (SK part))

## native, full-length mature SK protein derived from Streptococcus equisimilus (nSK)
[1]
  amidolytic kinetic parameters of the SK-PAC on S2251: Km (µM), Kcat (S^-1), kcat/Km (µM^-1 S^-1): 0.226 µM^-1 S^-1
[2]
  lag phase of plasminogen activation (S2251 hydrolysis, absorption at 405 nm, 21° C.): < 50 s

## plasmin (from UniProt P00747) (enzyme)
[3]
  cleavage of SK by plasmin after mixing with excess Glu-plasminogen (immunoblot with monoclonal anti-SK antibodies): < 30 s
[4]
  cleavage of SK by plasmin after mixing with excess Glu-plasminogen (immunoblot with monoclonal anti-SK antibodies): 1 min
